From US20050037448A1

How the values were obtained:
des-64,65-proinsulin [1] = biological target: des-64,65-proinsulin (UniProt P01308); experiment: competitive RIA, PEP001-coated tubes, 125I-Tyr-C-peptide; serum E1 overloaded with 0.16 pmol/ml des-64,65-proinsulin; competitor AC1D4 20 µg/ml
des-31,32-proinsulin [2] = biological target: des-31,32-proinsulin (UniProt P01308); experiment: competitive RIA, PEP001-coated tubes, 125I-Tyr-C-peptide; serum E1 overloaded with 0.16 pmol/ml des-31,32-proinsulin; competitor AC1D4 20 µg/ml
des-64,65-proinsulin [3] = biological target: des-64,65-proinsulin (UniProt P01308); experiment: competitive RIA, PEP001-coated tubes, 125I-Tyr-C-peptide; serum E2 overloaded with 0.16 pmol/ml des-64,65-proinsulin; competitor AC1D4 20 µg/ml
human proinsulin (human) [4] = biological target: human proinsulin (human) (UniProt P01308); experiment: competitive RIA, PEP001-coated tubes, 125I-Tyr-C-peptide; serum E2 overloaded with 3.33 pmol/ml proinsulin; no AC1D4
des-64,65-proinsulin [5] = biological target: des-64,65-proinsulin (UniProt P01308); experiment: competitive RIA, PEP001-coated tubes, 125I-Tyr-C-peptide; serum E1 overloaded with 0.16 pmol/ml des-64,65-proinsulin; no AC1D4
human proinsulin (human) [6] = biological target: human proinsulin (human) (UniProt P01308); experiment: competitive RIA, PEP001-coated tubes, 125I-Tyr-C-peptide; serum E1 overloaded with 0.16 pmol/ml proinsulin; competitor AC1D4 20 µg/ml
des-31,32-proinsulin [7] = biological target: des-31,32-proinsulin (UniProt P01308); experiment: sandwich immunoenzymatic C-peptide assay: PEP001 beads, goat polyclonal anti-C-peptide-alkaline phosphatase; competitor AC1D4 20 µg/ml
des-64,65-proinsulin [8] = biological target: des-64,65-proinsulin (UniProt P01308); experiment: as above
human proinsulin (human) [9] = biological target: human proinsulin (human) (UniProt P01308); experiment: as above
des-31,32-proinsulin [10] = biological target: des-31,32-proinsulin (UniProt P01308); experiment: sandwich immunoenzymatic C-peptide assay: PEP001 beads, goat polyclonal conjugate; no AC1D4 or BC9B6
des-64,65-proinsulin [11] = biological target: des-64,65-proinsulin (UniProt P01308); experiment: as above
human proinsulin (human) [12] = biological target: human proinsulin (human) (UniProt P01308); experiment: as above
des-31,32-proinsulin [13] = biological target: des-31,32-proinsulin (UniProt P01308); experiment: competitive RIA, PEP001-coated tubes, 125I-Tyr-C-peptide; serum E2 overloaded with 3.33 pmol/ml des-31,32-proinsulin; competitor AC1D4 20 µg/ml
des-31,32-proinsulin [14] = biological target: des-31,32-proinsulin (UniProt P01308); experiment: competitive RIA, PEP001-coated tubes, 125I-Tyr-C-peptide; serum E2 overloaded with 0.67 pmol/ml des-31,32-proinsulin; no AC1D4
human proinsulin (human) [15] = biological target: human proinsulin (human) (UniProt P01308); experiment: competitive RIA, PEP001-coated tubes, 125I-Tyr-C-peptide; serum E2 overloaded with 3.33 pmol/ml proinsulin; competitor AC1D4 20 µg/ml
human proinsulin (human) [16] = biological target: human proinsulin (human) (UniProt P01308); experiment: competitive RIA, PEP001-coated tubes, 125I-Tyr-C-peptide; serum E1 overloaded with 3.33 pmol/ml proinsulin; no AC1D4
human proinsulin (human) [17] = biological target: human proinsulin (human) (UniProt P01308); experiment: competitive RIA, PEP001-coated tubes, 125I-Tyr-C-peptide; serum E1 overloaded with 3.33 pmol/ml proinsulin; competitor AC1D4 20 µg/ml
des-31,32-proinsulin [18] = biological target: des-31,32-proinsulin (UniProt P01308); experiment: competitive RIA, PEP001-coated tubes, 125I-Tyr-C-peptide; serum E2 overloaded with 0.16 pmol/ml des-31,32-proinsulin; competitor AC1D4 20 µg/ml
des-31,32-proinsulin [19] = biological target: des-31,32-proinsulin (UniProt P01308); experiment: competitive RIA, PEP001-coated tubes, 125I-Tyr-C-peptide; serum E2 overloaded with 0.67 pmol/ml des-31,32-proinsulin; competitor AC1D4 20 µg/ml
des-31,32-proinsulin [20] = biological target: des-31,32-proinsulin (UniProt P01308); experiment: competitive RIA, PEP001-coated tubes, 125I-Tyr-C-peptide; serum E1 overloaded with 0.67 pmol/ml des-31,32-proinsulin; no AC1D4
human proinsulin (human) [21] = biological target: human proinsulin (human) (UniProt P01308); experiment: competitive RIA, PEP001-coated tubes, 125I-Tyr-C-peptide; serum E2 overloaded with 0.16 pmol/ml proinsulin; no AC1D4
human proinsulin (human) [22] = biological target: human proinsulin (human) (UniProt P01308); experiment: competitive RIA, PEP001-coated tubes, 125I-Tyr-C-peptide; serum E1 overloaded with 0.67 pmol/ml proinsulin; no AC1D4
human proinsulin (human) [23] = biological target: human proinsulin (human) (UniProt P01308); experiment: competitive RIA, PEP001-coated tubes, 125I-Tyr-C-peptide; serum E2 overloaded with 0.16 pmol/ml proinsulin; competitor AC1D4 20 µg/ml
des-64,65-proinsulin [24] = biological target: des-64,65-proinsulin (UniProt P01308); experiment: competitive RIA, PEP001-coated tubes, 125I-Tyr-C-peptide; serum E2 overloaded with 3.33 pmol/ml des-64,65-proinsulin; no AC1D4
des-31,32-proinsulin [25] = biological target: des-31,32-proinsulin (UniProt P01308); experiment: competitive RIA, PEP001-coated tubes, 125I-Tyr-C-peptide; serum E1 overloaded with 3.33 pmol/ml des-31,32-proinsulin; no AC1D4
des-31,32-proinsulin [26] = biological target: des-31,32-proinsulin (UniProt P01308); experiment: sandwich immunoenzymatic C-peptide assay: PEP001 beads, goat polyclonal conjugate; competitors AC1D4 + BC9B6 in equal quantities, column head 2 µg/ml
des-64,65-proinsulin [27] = biological target: des-64,65-proinsulin (UniProt P01308); experiment: as above
human proinsulin (human) [28] = biological target: human proinsulin (human) (UniProt P01308); experiment: as above

PEP001 anti-C-peptide monoclonal antibody
Increase after overload (%) (des-64,65-proinsulin [1]): 10%
Increase after overload (%) (des-31,32-proinsulin [2]): 5%
Increase after overload (%) (des-64,65-proinsulin [3]): 0%
Increase after overload (%) (human proinsulin (human) [4]): 54%
Increase after overload (%) (des-64,65-proinsulin [5]): 6%
Increase after overload (%) (human proinsulin (human) [6]): 0%
percentage of cross reaction (des-31,32-proinsulin [7]): 16%
percentage of cross reaction (des-64,65-proinsulin [8]): 85%
percentage of cross reaction (human proinsulin (human) [9]): 8%
percentage of cross reaction (des-31,32-proinsulin [10]): 108%
percentage of cross reaction (des-64,65-proinsulin [11]): 94%
percentage of cross reaction (human proinsulin (human) [12]): 92%
Increase after overload (%) (des-31,32-proinsulin [13]): 6%
Increase after overload (%) (des-31,32-proinsulin [14]): 8%
Increase after overload (%) (human proinsulin (human) [15]): 0%
Increase after overload (%) (human proinsulin (human) [16]): 288%
Increase after overload (%) (human proinsulin (human) [17]): 31%
Increase after overload (%) (des-31,32-proinsulin [18]): 0%
Increase after overload (%) (des-31,32-proinsulin [19]): 5%
Increase after overload (%) (des-31,32-proinsulin [20]): 38%
Increase after overload (%) (human proinsulin (human) [21]): 1%
Increase after overload (%) (human proinsulin (human) [22]): 56%
Increase after overload (%) (human proinsulin (human) [23]): 0%
Increase after overload (%) (des-64,65-proinsulin [24]): 55%
Increase after overload (%) (des-31,32-proinsulin [25]): 213%
percentage of cross reaction (des-31,32-proinsulin [26]): 65%
percentage of cross reaction (des-64,65-proinsulin [27]): 48%
percentage of cross reaction (human proinsulin (human) [28]): 23%
